Assay results as given in article PMC9583076.

Molecular target: Individual alanine mutations of these three residues (HTR2B S455, S456 and S457)
Test: FRET or BRET

N-terminal Venus-tagged β-arrestin-1, sequence (P49407 whole entry): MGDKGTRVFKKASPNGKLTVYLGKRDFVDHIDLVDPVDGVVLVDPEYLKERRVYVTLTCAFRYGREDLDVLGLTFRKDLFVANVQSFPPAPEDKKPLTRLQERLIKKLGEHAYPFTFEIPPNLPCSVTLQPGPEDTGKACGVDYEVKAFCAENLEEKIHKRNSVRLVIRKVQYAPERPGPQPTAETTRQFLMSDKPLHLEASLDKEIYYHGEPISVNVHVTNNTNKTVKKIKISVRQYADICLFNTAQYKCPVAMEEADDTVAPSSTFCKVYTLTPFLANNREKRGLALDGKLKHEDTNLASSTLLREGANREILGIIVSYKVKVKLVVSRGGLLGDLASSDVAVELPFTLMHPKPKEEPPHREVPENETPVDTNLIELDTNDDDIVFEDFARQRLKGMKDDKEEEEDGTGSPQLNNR

- reduction of Emax of β-arrestin-1 recruitment against WT: 30 to 50%
Substance: N-terminal Venus-tagged β-arrestin-1 (from UniProt P49407 1-418) (natural protein)
